From US20210238260 come the findings set out here.

Substitutions are numbered along the chain they refer to. Names may count otherwise.

The chains are these.
B1: FIXa-Y155F/N260S/R318Y/R338E/T343R/R403E/E410N (protein)
chain 1: YNSGKLEEFVQGNLERECMEEKCSFEEAREVFENTERTTEFWKQYVDGDQCESNPCLNGGSCKDDINSYECWCPFGFEGKNCELDVTCNIKNGRCEQFCKNSADNKVVCSCTEGYRLAENQKSCEPAVPFPCGRVSVSQTSKLTR
chain 2: VVGGEDAKPGQFPWQVVLNGKVDAFCGGSIVNEKWIVTAAHCVETGVKITVVAGEHNIEETEHTEQKRNVIRIIPHHNYSAAINKYNHDIALLELDEPLVLNSYVTPICIADKEYTNIFLKFGSGYVSGWGRVFHKGYSALVLQYLRVPLVDRATCLESTKFRIYNNMFCAGFHEGGRDSCQGDSGGPHVTEVEGTSFLTGIISWGEECAMKGKYGIYTKVSEYVNWIKNKTKLT
B2: FIXa D104N/K106S/K228N/K247N/N249S/R318Y/R338E/R403E/E410N (protein)
chain 1: B1 chain 1 with D104N, K106S
chain 2: B1 chain 2 with K48N, K67N, N69S, S80N, R163T
B3: FIXa-K228N/K247N/N249S/R318Y/R338E/T343R/E410N (protein)
chain 1: B1 chain 1
chain 2: B1 chain 2 with K48N, K67N, N69S, S80N, E223R
B4: FIXa-K228N/K247N/N249S/R318Y/R338E/T343R/R403E/E410N (protein)
chain 1: B1 chain 1
chain 2: B1 chain 2 with K48N, K67N, N69S, S80N
B5: FIXa-R318Y/T343R/E410N (protein)
chain 1: B1 chain 1
chain 2: B1 chain 2 with S80N, E158R, E223R
B6: FIXa-Y155F/K228N/K247N/N249S/R318Y/R338E/T343R/R403E/E410N (protein)
chain 1: B1 chain 1
chain 2: B1 chain 2 with K48N, K67N, N69S, S80N
B7: FIXa K228N/K247N/N249S/R318Y/R338E/R403E/E410N (protein)
chain 1: B1 chain 1
chain 2: B1 chain 2 with K48N, K67N, N69S, S80N, R163T
B8: FIXa-K228N/K247N/N249S/R318Y/T343R/R403E/E410N (protein)
chain 1: B1 chain 1
chain 2: B1 chain 2 with K48N, K67N, N69S, S80N, E158R
B9: FIXa Y155F/K228N/K247N/N249S (protein)
chain 1: B1 chain 1
chain 2: B1 chain 2 with K48N, K67N, N69S, S80N, Y138R, E158R, R163T, E223R, N230E
B10: FIXa-K228N/R318Y/R338E/T343R/R403E/E410N (protein)
chain 1: B1 chain 1
chain 2: B1 chain 2 with K48N, S80N
B11: FIXa-K228N/K247N/N249S/R318Y/R338E/T343R/R403E (protein)
chain 1: B1 chain 1
chain 2: B1 chain 2 with K48N, K67N, N69S, S80N, N230E

Sequence of Factor X (FX), P00742 (P00742 whole entry, looked up): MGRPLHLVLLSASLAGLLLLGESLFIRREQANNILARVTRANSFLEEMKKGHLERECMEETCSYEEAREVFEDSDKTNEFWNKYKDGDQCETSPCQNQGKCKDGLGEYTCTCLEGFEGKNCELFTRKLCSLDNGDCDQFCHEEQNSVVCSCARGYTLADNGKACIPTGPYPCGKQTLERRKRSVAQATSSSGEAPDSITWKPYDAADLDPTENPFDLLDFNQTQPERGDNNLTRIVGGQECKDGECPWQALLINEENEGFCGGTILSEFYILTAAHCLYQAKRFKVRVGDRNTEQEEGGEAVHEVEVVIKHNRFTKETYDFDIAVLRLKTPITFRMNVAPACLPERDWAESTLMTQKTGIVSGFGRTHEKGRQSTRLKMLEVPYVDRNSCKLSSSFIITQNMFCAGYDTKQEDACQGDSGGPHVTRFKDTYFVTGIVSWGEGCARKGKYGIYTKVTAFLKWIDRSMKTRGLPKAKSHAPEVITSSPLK

The first series has as its target Factor X (FX), P00742.
Consider B1, for which the KM is 0.0402 µM.
For the protein B2, the KM (FX activation by FIXa in the Xase complex with FVIIIa, PC/PS vesicles and Ca2+) came out at 0.0533 µM.
As for B3, the kcat (s^-1) of FX activation by FIXa variant in the Xase complex (FVIIIa, PC/PS vesicles, Ca2+), fluorogenic FXa read-out was 4.7 s⁻¹.
B4: the KM worked out at 0.0251 µM.
With B5, the kcat (s^-1) of FX activation by FIXa variant in the Xase complex (FVIIIa, PC/PS vesicles, Ca2+), fluorogenic FXa read-out stood at 3.2 s⁻¹.
As for B6, the KM was found to be 0.0368 µM.
As to B7, the KM (FX activation by FIXa in the Xase complex with FVIIIa, PC/PS vesicles and Ca2+) came out at 0.0497 µM.
B8: the kcat (s^-1) of FX activation by FIXa variant in the Xase complex (FVIIIa, PC/PS vesicles, Ca2+), fluorogenic FXa read-out turned out to be 8.1 s⁻¹.
For the protein B9, the KM (FX activation by FIXa in the Xase complex with FVIIIa, PC/PS vesicles and Ca2+) is 0.0792 µM.
In the case of B10, the kcat (s^-1) of FX activation by FIXa variant in the Xase complex (FVIIIa, PC/PS vesicles, Ca2+), fluorogenic FXa read-out was 10.5 s⁻¹.
As to B11, the kcat (s^-1) of FX activation by FIXa variant in the Xase complex (FVIIIa, PC/PS vesicles, Ca2+), fluorogenic FXa read-out was found to be 10.9 s⁻¹.

In a further series the target is Factor X, P00742.
Sequence of Factor X, P00742 (P00742 whole entry, looked up): as above
As for B1, the “% of WT kcat/KM” value was determined as 335%, the kcat came out at 5.8 s⁻¹ and the kcat/KM was 1.5e+08 M⁻¹ s⁻¹.
Regarding B2, the “% of WT kcat/KM” value was 239% and the kcat/KM stood at 1.1e+08 M⁻¹ s⁻¹.
B3: the KM amounted to 0.0381 µM.
Regarding B4, the “% of WT kcat/KM” value worked out at 880%, the kcat is 9.9 s⁻¹ and the kcat/KM is 4.1e+08 M⁻¹ s⁻¹.
B5: the KM worked out at 0.0523 µM.
On to B6, for which the “% of WT kcat/KM” value was found to be 646%, the kcat was found to be 9.4 s⁻¹ and the kcat/KM was 3e+08 M⁻¹ s⁻¹.
Consider B7, for which the “% of WT kcat/KM” value came out at 352% and the kcat/KM worked out at 1.6e+08 M⁻¹ s⁻¹.
As to B8, the KM is 0.125 µM.
For the protein B9, the “% of WT kcat/KM” value is listed as 115% and the kcat/KM stood at 5.3e+07 M⁻¹ s⁻¹.
For the protein B10, the KM came out at 0.0403 µM.
On to B11, for which the KM worked out at 0.0444 µM.
